Results from patent US20220276234A1, “POINT-OF-CARE IMMUNOASSAY FOR QUANTITATIVE SMALL ANALYTE DETECTION” (priority 2011, published 2022).

Key:
[1] = compared with parent compound aripiprazole and dehydro aripiprazole; cited from earlier work
[2] = in vivo; cited from earlier work
[3] = cited from earlier work
B7-HTHC immune complex [4] = assay: Capillary electrophoresis test of candidate aptamers; type: binding; details: electropherogram peak shift, FIGS. 10A and 10B
Method: Following completion of aptamer selection, aptamers from the first, fifth, and tenth rounds of Structure Switching SELEX were sequenced using standard Next-Generation Sequencing (NGS) methods (AKESOgen). Of the sequences obtained by NGS, ten sequences per aptamer were tested using Capillary Electrophoresis (CE) and in a proprietary assay utilizing real-time PCR.
The candidate aptamers were initially tested using capillary electrophoresis. Of the 10 B7-HTHC aptamers, 3 were identified as candidate binders. […] This is likely due to the difference between the composition of the buffer required for capillary electrophoresis and the composition of the buffer used during the SELEX selection process.

B7 antibody alone = assay: Proprietary qPCR-based aptamer binding assay, immune complexes anchored to solid support; details: qPCR amplification, FIG. 11
Method: (§1) Binding selectivity was tested in varying salt conditions to determine optimal conditions for selection. Using a proprietary binding assay, the aptamers were allowed to incubate with immune complexes that were anchored to a solid support. After the incubation period, the immune complexes were washed, and the amount of aptamer binding was assayed via qPCR. Increased aptamer binding to the immune complex allowed faster detection of DNA amplification.
(§2) Of the aptamers tested, only one aptamer satisfied the following requirements: (1) binding to the correct immune complex, (2) no binding to the antibody alone, and (3) no binding to the antibody and the incorrect metabolite. FIG. 11 is a qPCR amplification curve showing the binding of Aptamer B7C4 with the immune complex B7-HTHC, the immune complex B7-THC, the B7 antibody alone, and a negative control. Theoretically, every additional cycle indicates 2 times fewer bound aptamer molecules.

B7-HTHC immune complex [5] = assay: as above; details: qPCR amplification, FIG. 11
Method: as §1, §2

B7-THC immune complex = assay: as above; details: qPCR amplification, FIG. 11
Method: as §1, §2

B7-HTHC immunocomplex = assay: Sandwich type ELISA assay with selected derived B7-HTHC aptamers (5' biotin, HRP-streptavidin, TMB); type: binding
Method: The 11 aptamers were synthesized with a 5′ biotin such that they could be detected in ELISA-type assays. The aptamers were tested for their ability to bind to the target in two ways. In both assays, the antibody was coated onto the walls of a microtiter plate. In the first assay, HTHC was added to the antibody. After washing away unbound HTHC, the aptamers were added. In the second assay, the aptamers were added to the wells with HTHC simultaneously. In both assays, after washing away unbound aptamer, the plates were incubated with HRP-streptavidin, and then assayed for the amount of aptamer that remained bound to the immunocomplex using a colorimetric TMB assay.

[6] = separate incubation: aptamers added after HTHC and washing, FIG. 16A
[7] = simultaneous incubation: aptamers added with HTHC, FIG. 16B

O=C(O)CCCOc1ccc2c(c1)NC(=O)CC2 [OPC-3373]
Water solubility [1]: much more water soluble

CCCCCc1cc(O)c2c(c1)OC(C)(C)[C@@H]1CCC(C)=C[C@@H]21 [THC, Delta-9-tetrahydrocannabinol]
Excreted in the feces [2]: More than 55% | Excreted in the urine [2]: approximately 20%

CN1CCCC1c1cccnc1 (stereo not shown) [nicotine]
Time to reach the brain after inhalation ([3]; crosses the blood-brain barrier): 10 to 20 s | Elimination half-life in the body ([3]; in vivo): approximately two

B1: B7C1: candidate DNA aptamer for antibody B7 and HTHC (nucleic acid)
DNA: CCTGTCAGTTGCTTACCGGCCCAGGTGTAGTAACTGCAGGGATTCTTAACGTAGCTACCGGGTGTAGTGTCCTTGCTCGT
modifications: DNA, backbone not given here; further chemistry not fully specified
notes: candidate DNA aptamer for antibody B7 and HTHC
Binding to immune complex by capillary electrophoresis (B7-HTHC immune complex [4]): peak shifts associated with the introduction of the immune complex

B2: B7C4: parent DNA aptamer selective for the B7-HTHC immune complex (nucleic acid)
DNA: CCTGTCAGTTGCTTACCGGGCACGAGTACGAGACTGCAGGATTCTTCTACACTGCCCCCCATGTAGTGTCCTTGCTCGT
modifications: DNA, backbone not given here; further chemistry not fully specified
Aptamer binding to B7 antibody alone (B7 antibody alone): minimal binding | Aptamer binding to B7 antibody alone (B7 antibody alone; listed as B7C4-HTHC): residual binding affinity | Aptamer binding to B7-HTHC immune complex (B7-HTHC immune complex [5]): significant binding | Aptamer binding to B7-HTHC immune complex (B7-HTHC immune complex [5]; listed as B7C4-HTHC): high affinity | Aptamer binding to B7-THC immune complex (B7-THC immune complex): minimal binding

B3: Aptamer 815: selected derived B7-HTHC DNA aptamer, family 2 (nucleic acid)
DNA: CCTGTCAGTTGCTTACCGGGCACGAGTACTAGACTGCAGGATTCTTCTACACTGCCCCCCATGTAGTGTCCTTGCTCGT
modifications: DNA, backbone and methylation of C not given here
Normalized absorption signal, aptamer binding to immunocomplex (B7-HTHC immunocomplex; [6]): high binding | Normalized absorption signal, aptamer binding to immunocomplex (B7-HTHC immunocomplex; [7]): lost this ability

B4: Aptamer 444: selected derived B7-HTHC DNA aptamer (nucleic acid)
DNA: CCTGTCAGTTGCTTACCGGGCACGAGTACGAGACTGCAGGATTCTTCTACACTGCGCCCCATGTAGTGTCCTTGCTCGT
modifications: DNA, backbone and methylation of C not given here
Normalized absorption signal, aptamer binding to immunocomplex (B7-HTHC immunocomplex; [6]): high sensitivity | Normalized absorption signal, aptamer binding to immunocomplex (B7-HTHC immunocomplex; [7]): reduced sensitivity

B5: Aptamer 493: selected derived B7-HTHC DNA aptamer (nucleic acid)
DNA: CCTGTCAGTTGCTTACCGGGCACGAGTACGAGACTGCAGGATTCTTCTACACTGCACCCCATGTAGTGTCCTTGCTC
modifications: DNA, backbone and methylation of C not given here
Normalized absorption signal, aptamer binding to immunocomplex (B7-HTHC immunocomplex; [6]): the opposite behavior compared to that of aptamer 444 | Normalized absorption signal, aptamer binding to immunocomplex (B7-HTHC immunocomplex; [7]): the opposite behavior compared to that of aptamer 444

B6: Aptamer 368.2: selected derived B7-HTHC DNA aptamer (nucleic acid)
DNA: CCTGTCAGTTGCTTACCGGGCACGAGTACGAGACTGCAGGATTCTTCTACACTGCTCCCCATGTAGTGTCCTTGCTCGT
modifications: DNA, backbone and methylation of C not given here
Normalized absorption signal, aptamer binding to immunocomplex (B7-HTHC immunocomplex; [6]): significant binding | Normalized absorption signal, aptamer binding to immunocomplex (B7-HTHC immunocomplex; [7]): significant binding
